The values that follow come from US6372467B1, “P54s6k and p85s6k genes, proteins, primers, probes, and detection methods” (President and Fellows of Harvard College, priority 1998, dated 2002).

One data set deals with p54^S6K. Kind of data set: In vitro kinase assay (GST-S6 substrate) of 167 anti-p54^S6K antiserum immunoprecipitates from mitogen-treated 293 cells. Type of data set: cell-based, human. Conditions: EGF 250 ng/ml or insulin 200 nM for 20 minutes. As for the experimental part: (§1) 293 cells were treated with serum (10%), EGF (250 ng/ml), or insulin (200 nM) for 20 minutes, lysed, and the lysates were immunoprecipitated with 167 anti-p54^S6K antiserum or with N2 anti-p70^S6k antiserum. Phosphorimager™ counts from an in vitro kinase assay of the immunoprecipitates using GST-S6 as the substrate are shown.
(§2) Antibodies were made using standard techniques, such as those described in Harlow and Lane (Antibodies: A Laboratory Manual, Cold Spring Harbor Press, New York. 1988). The cells were starved and then stimulated with serum, EGF, or insulin, or left unstimulated. Rapamycin or wortmannin were also incubated with the cells prior to serum stimulation when indicated.
(§3) Lysates from 293 cells transfected with HA-p54^S6K or HA-p54^S6K KR were immunoblotted with anti-HA Ab. (FIG. 3B bottom left panel). […] This is of interest since a majority of the p70^S6k phosphorylation sites are conserved in p54^S6K (FIG. 1B). […] Finally, the activation kinetics of p54^S6K and p70^S6k were compared.

The test system of another data set is p70^S6k. Kind of data set: In vitro kinase assay (GST-S6 substrate) of N2 anti-p70^S6k antiserum immunoprecipitates from mitogen-treated 293 cells. Type of data set: cell-based, human. The conditions noted are these: EGF 250 ng/ml or insulin 200 nM for 20 minutes. As for the experimental part: as §1, §2, §3

With EGF, the “p54^S6K kinase activity (stimulation by mitogen)” value with p54^S6K is given as “to a small degree”. Further, in the data set with p70^S6k, the “p70^S6k kinase activity (activation by mitogen)” value is reported as “only mildly activated”.
For insulin, in that order: “stimulated” and “strongly activated”.
